Source: the supplement of paper PMC7877785
± gives the uncertainty stated by the source.

Assay: self-splicing fitness, log relative to wild type (ln ratio); higher = more splicing; Tetrahymena group I intron in knt gene, E. coli kanamycin selection, DiMSum; sequences stand for … in CUCUCU…GGAGGGAAAAGUUAUCAGGCAUGCACCUGGUAGCUAGUCUUUAAACCAAUAGAUUGCAUCGGUUUAAAAGGCAAGACCGUCAAAUUGCGGGAAAGGGGUCAACAGCCGUUCAGUACCAAGUCUCAGGGGAAACUUUGAGAUGGCCUUGCAAAGGGUAUGGUAAUAAGCUGACGGACAUGGUCCUAACCACGCAGCCAAGUCCUAAGUCAACAGAUCUUCUGUUGAUAUGGAUGCAGUUCACAGACUAAAUGUCGGUCGGGGAAGAUGUAUUCUUCUCAUAAGAUAUAGUCGGACCUCUCCUUAAUGGGAGCUAGCGGAUGAAGUGAUGCAACACUGGAGCCGCUGGGAACUAAUUUGUAUGCGAAAGUAUAUUGAUUAGUUUUGGAGUACUCGUGGUCG
How it was run: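 The eight P1ex-region nucleotides of an intron in the knt kanamycin-resistance gene on pET-22b(+) were all randomised and the library put into E. coli BL21(DE3). Six replicate transformations were grown overnight at 37°C or 30°C on LB agar with or without 25 μg/mL kanamycin, together with 100 μg/mL carbenicillin, 50 μM IPTG and 0.2% rhamnose. Colonies were pooled and amplicon-sequenced on an Illumina HiSeq 2500. Fitness from DiMSum is the error-weighted combination of wild-type-normalised replicate fold changes, kanamycin over none.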

Row | Sequence | self-splicing fitness (ln) (30 °C) | self-splicing fitness (ln) (37 °C)
1 | UAAAAGCAAUAUUACGCAAU | -3.58 ± 0.17 | -1.6 ± 0.13
2 | GUUCAGCAAUAUUACGAAAG | -0.36 ± 0.24 | 0.462 ± 0.22
3 | GCUUAGCAAUAUUACGGUAA | -2.18 ± 0.14 | -1.54 ± 0.13
4 | UGCCAGCAAUAUUACGCCGA | -2.56 ± 0.37 | -1.07 ± 0.18
5 | UCCCAGCAAUAUUACGACUA | -2.12 ± 0.15 | -1.15 ± 0.15
6 | AUUUAGCAAUAUUACGACAA | -1.36 ± 0.2 | -0.936 ± 0.22
7 | AACAAGCAAUAUUACGGUCG | -0.247 ± 0.08 | -0.152 ± 0.086
8 | GCUCAGCAAUAUUACGGUUU | -0.112 ± 0.059 | 0.228 ± 0.073
9 | UGCGAGCAAUAUUACGCCUG | -3.98 ± 0.22 | -0.862 ± 0.13
10 | UGAUAGCAAUAUUACGUCAG | -1.84 ± 0.1 | -1.03 ± 0.12
11 | UCGGAGCAAUAUUACGUAAC | -3.51 ± 0.48 | –
12 | ACUUAGCAAUAUUACGACAA | -1.55 ± 0.17 | -0.888 ± 0.28
13 | AGUCAGCAAUAUUACGGCGA | -0.359 ± 0.091 | 0.00759 ± 0.14
14 | GUGUAGCAAUAUUACGCCAA | – | -1.85 ± 0.34
15 | CGGGAGCAAUAUUACGAGAG | -3.34 ± 0.26 | -3.18 ± 0.32
16 | UUAUAGCAAUAUUACGUCGU | -3.1 ± 0.3 | –
17 | GCGCAGCAAUAUUACGUGAA | 0.0716 ± 0.076 | 0.149 ± 0.074
18 | ACUUAGCAAUAUUACGUAGC | -2.76 ± 0.12 | -1.58 ± 0.13
19 | UCGCAGCAAUAUUACGACCU | -3.1 ± 0.41 | -1.37 ± 0.27
20 | ACUAAGCAAUAUUACGUAGC | -2.96 ± 0.16 | -1.25 ± 0.13
21 | ACCAAGCAAUAUUACGGGUC | -4.12 ± 0.17 | -2.67 ± 0.14
22 | UCACAGCAAUAUUACGUCGG | -1.43 ± 0.077 | -0.796 ± 0.083
23 | ACCUAGCAAUAUUACGAGCU | -0.918 ± 0.075 | -0.237 ± 0.09
24 | GACGAGCAAUAUUACGCCAA | -3.23 ± 0.28 | -0.956 ± 0.3

Row | Sequence | self-splicing fitness (ln) (30 °C) | self-splicing fitness (ln) (37 °C)
25 | AACUAGCAAUAUUACGGAUG | -2.26 ± 0.067 | -1.03 ± 0.072
26 | CUAGAGCAAUAUUACGAUUC | -2.96 ± 0.29 | -2.75 ± 0.48
27 | UUCAAGCAAUAUUACGGCAA | 0.101 ± 0.1 | 0.0563 ± 0.11
28 | CGUCAGCAAUAUUACGCUUU | -3.76 ± 0.27 | -1.66 ± 0.17
29 | UGACAGCAAUAUUACGCUCA | -0.115 ± 0.11 | -0.155 ± 0.1
30 | UGUCAGCAAUAUUACGGCGC | -2.76 ± 0.21 | -1.65 ± 0.19
31 | UCGCAGCAAUAUUACGGGGG | -2.52 ± 0.15 | -1.86 ± 0.17
32 | UGCCAGCAAUAUUACGUCGC | -3.68 ± 0.44 | -2.95 ± 0.35
33 | UACGAGCAAUAUUACGGAUA | -2.3 ± 0.17 | -1.43 ± 0.12
34 | GCGCAGCAAUAUUACGAGUC | -1.6 ± 0.13 | -1.36 ± 0.24
35 | CACCAGCAAUAUUACGCUCA | -1.42 ± 0.12 | -1.13 ± 0.17
36 | CUGGAGCAAUAUUACGUCAA | -2.69 ± 0.44 | -1.19 ± 0.47
37 | CGGUAGCAAUAUUACGCCAG | -0.874 ± 0.092 | -1.03 ± 0.14
38 | CUGGAGCAAUAUUACGCAGC | -3.72 ± 0.49 | -0.0349 ± 0.47
39 | UUUAAGCAAUAUUACGCGCA | -0.212 ± 0.11 | 0.0171 ± 0.15
40 | UGCUAGCAAUAUUACGUGUU | -3.87 ± 0.16 | -2.21 ± 0.12
41 | GAAGAGCAAUAUUACGAUUC | -3.57 ± 0.26 | -2.45 ± 0.28
42 | ACACAGCAAUAUUACGAGGU | -2.85 ± 0.13 | -2.04 ± 0.14
43 | AUGUAGCAAUAUUACGGGGU | -2.77 ± 0.23 | -3.12 ± 0.3
44 | UUGGAGCAAUAUUACGUCCA | -2.2 ± 0.2 | -1.74 ± 0.23
45 | GGUGAGCAAUAUUACGCGUA | -1.95 ± 0.3 | -0.54 ± 0.21
46 | ACUCAGCAAUAUUACGGUUA | -0.995 ± 0.08 | -0.513 ± 0.076
47 | UCAAAGCAAUAUUACGUGGA | -1.49 ± 0.1 | -1.6 ± 0.11
48 | ACUCAGCAAUAUUACGUAUC | -2.28 ± 0.14 | -1.66 ± 0.14
